One assay has as its target alpha-synuclein seeds (UniProt P37840 1-140). In words: cell-based or functional assay.
The next assay addresses T1, 82-96aa.
T1 construct: also called alpha-synuclein peptide 82-96
T1 peptide: {Biotin-Ahx}-VEGAGSIAAATGFVK
In words: indirect ELISA on biotinylated 15-mer peptide. (In an ELISA, binding on a coated surface is turned into a signal by an enzyme label.)

The next assay addresses T2, 91-105aa.
T2 peptide: {Biotin-Ahx}-ATGFVKKDQLGKNEE
In words: indirect ELISA on biotinylated 15-mer peptide.

The target in the next assay is T3, 118-132aa.
T3 peptide: {Biotin-Ahx}-VDPDNEAYEMPSEEG
In words: indirect ELISA on biotinylated 15-mer peptide.

A further assay concerns the target T4, 127-140aa.
T4 peptide: {Biotin-Ahx}-MPSEEGYQDYEPEA
In words: indirect ELISA on biotinylated 15-mer peptide.

In assay [1] the target is T5, 1-14aa.
T5 construct: also called alpha-synuclein peptide 1-14
T5 peptide: MDVFMKGLSKAKEG-biotin
Nature of the assay: indirect ELISA on biotinylated 15-mer peptide.

For assay [2], the target named is T6, 1-15aa.
T6 construct: also called alpha-synuclein peptide 1-15
T6 peptide: {Biotin-Ahx}-MDVFMKGLSKAKEGV
In words: indirect ELISA on biotinylated 15-mer peptide.

A further assay has as its target T7, 46-60aa.
T7 construct: also called alpha-synuclein peptide 46-60
T7 peptide: {Biotin-Ahx}-EGVVHGVATVAEKTK
In words: indirect ELISA on biotinylated 15-mer peptide.

In assay [3] the target is T8, 10-24aa.
T8 construct: also called alpha-synuclein peptide 10-24
T8 peptide: {Biotin-Ahx}-KAKEGVVAAAEKTKQ
Nature of the assay: indirect ELISA on biotinylated 15-mer peptide, supernatant 1/100.

Assay [4] has as its target T8, 10-24aa. In words: indirect ELISA on biotinylated 15-mer peptide.
The target in assay [5] is T5, 1-14aa. Nature of the assay: indirect ELISA on biotinylated peptide, supernatant 1/100. On the procedure:
Serum-free supernatants were harvested from stable hybridomas. The supernatants containing antibodies of interest were then screened by an indirect ELISA assay to determine epitopes. Epitopes were first determined using a library of 15-mer peptides covering the entire sequence of human alpha-synuclein protein, spanning amino acids (aa) 1-140 with 9aa offset and […] overlap. […] Briefly, streptavidin-coated ELISA plates were blocked overnight at 4° C. […] Plates were washed with PBS/0.05% Tween®20 and then incubated with the hybridoma supernatants at 1/100 dilution for 1 hour at 25° C.

For assay [6], the target named is T6, 1-15aa. Nature of the assay: indirect ELISA on biotinylated 15-mer peptide, supernatant 1/100.
The target of assay [7] is monomeric alpha-synuclein (UniProt P37840 1-140). Nature of the assay: SPR, captured mAb. In general terms: In SPR one partner is held on a chip, and binding of the other changes the refractive index at the surface.
In the next assay the target is alpha-synuclein fibrils (UniProt P37840 1-140). In words: SPR, captured mAb.
The target of the next assay is T9, 64-78aa.
T9 construct: also called alpha-synuclein peptide 64-78
T9 peptide: {Biotin-Ahx}-TNVGGAVVTGVTAVA
Nature of the assay: indirect ELISA on biotinylated 15-mer peptide.

Assay [8] concerns the target human full-length alpha-synuclein (human, UniProt P37840 1-140). Nature of the assay: indirect ELISA on coated full-length alpha-synuclein, O.D. 405 nm.
Description: Antibody binding to human full-length alpha-synuclein was determined using an indirect ELISA. Full-length alpha-synuclein was diluted in carbonate/bicarbonate buffer pH 9.6 (Sigma, C3041) to a final concentration of 2.5pg/ml and coated onto ELISA plates overnight at 4° C. After washing with PBS/0.05% Polyethylene glycol sorbitan monolaurate (Tween®20) and blocking for 1 hour at 37° C. (PBS/0.05% Tween®20/1% BSA), plates were incubated for 2 hours at 37° C. with three-fold dilution series of alpha-synuclein antibodies from 1 μg/mL to 0.0005 μg/mL using PBS/0.05% Tween®20/1% BSA as diluent.
The target of the next assay is 28-42aa. Nature of the assay: indirect ELISA on biotinylated 15-mer peptide, supernatant 1/100.

Where no end group is shown, it is not given here. The star is where a group is joined. Biotin = O=C1N[C@H]2[C@H](CS[C@H]2CCCCC(=O)*)N1; Ahx = NCCCCCC(=O)O

B1: ACI-7079-2506F3-Ab1 (antibody, V domains shown)
VH: QVQLQQPGAELVKPGASVKLSCKASGYTFTTYWMQWVKQRPGQGLEWIGEIDPSDSYINYNQKFKGKATLTVDTSSSTAFMQLSSLTSEDSAVYYCARGMMDYWGQGTSVTVSS
VL: DVLMTQTPLSLPVSLGDQASISCRSSQSIVHSNGNTYLEWYLQKPGQSPKLLIYKVSNRFSGVPDRFSGSGSGTDFTLKISRVEAEDLGVYYCFKGSHVPYTFGGGTKLEIK
notes: mouse hybridoma mAb; VH/VL only; also called 2506F3E12
For the molecule B1, the “aggregation half-time (τ1/2) of seeded alpha-synuclein aggregation, ThT; no antibody 26.9 hours” value in the assay with alpha-synuclein seeds stood at 34.2 h. Further, the binding result in the assay with 82-96aa, with 91-105aa, with 118-132aa, with 127-140aa, with 1-14aa [1] and with 1-15aa [2] was “no binding (tested: supernatant 1/100)” throughout. Moreover, the values for the binding result with 46-60aa and in the assay with 10-24aa [3] were “no binding (tested: supernatant 1/100)” and “binds”, respectively.

B2: ACI-7079-2603C1-Ab3 (antibody, V domains shown)
VH: QVQLQQPGADLVKPGASVKLSCKASGYTFTSYWMQWTKQRPGQGLEWIGEIDPSDSYANYNQKFKGKATLTVDKYSSTAYMQLNSLTSEDSAVYYCALYDGPSYWGQGTLVTVS
VL: ENVLTQSPAIMSASPGEKVTMTCSAGSSVSYMHWFQQKSSTSPKLWIYDTSKLPSGVPGRFSGSGSGNSYSLTISSMEAEDVATYYCFQGSGYPYTFGGGTKLEIK
notes: mouse hybridoma mAb; VH/VL only; also called 2603C1H6
In the case of B2, the binding result in the assay with 82-96aa, with 91-105aa, with 118-132aa, with 127-140aa, with 10-24aa [4] and with 46-60aa was “no binding (tested: supernatant 1/100)” in each case. For the same molecule, the binding result in the assay with 1-14aa [5] and with 1-15aa [6] was “binds” throughout.

B3: ACI-7067-1206E5-Ab1 (antibody, V domains shown)
VH: QVQLQQSGPELVKPGASVKMSCKASGYTFTDYVISWVKQGTGQGLEWIGEIYPGNDSTYYNEKFKGKATLTADKSSNTAYMQLSSLTSEDSAVYFCAREGVSNGYLYLSMDYWGQGTSVTVSS
VL: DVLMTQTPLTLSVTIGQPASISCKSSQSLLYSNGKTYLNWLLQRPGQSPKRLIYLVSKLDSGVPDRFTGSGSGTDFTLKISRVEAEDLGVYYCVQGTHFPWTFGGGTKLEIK
notes: mouse hybridoma mAb; VH/VL only; also called 1206E5D2
What is called Kd is a measure of binding affinity in units of concentration. What is called koff is the first-order rate constant of dissociation. Read a high koff as fast dissociation. Usually kon stands for a measure of how fast the partners come together. A low value points to slower complex formation. Broadly, the EC50 (read off the curve) is the concentration at which the effect is half-maximal. On to B3, for which the figures for the dissociation constant Kd (in assay [7]; in the assay with alpha-synuclein fibrils) were 0.4 nM and 8.3 nM, respectively. The koff turned out to be 6.36e-05 s⁻¹ in [7] and 0.000405 s⁻¹ in the assay with alpha-synuclein fibrils. In addition, the kon in assay [7] worked out at 165000 M⁻¹ s⁻¹; with alpha-synuclein fibrils, 57300 M⁻¹ s⁻¹. Moreover, the binding result is “no binding (tested: supernatant 1/100)” with 64-78aa; “no binding (tested: supernatant 1/100)” in the assay with 82-96aa; “no binding (tested: supernatant 1/100)” with 118-132aa; “no binding (tested: supernatant 1/100)” in the assay with 127-140aa; “no binding (tested: supernatant 1/100)” with 46-60aa; “binds” with 28-42aa. Further, in assay [8], the concentration for a half-maximal effect (EC50 (read off the curve)) was around 0.04 µg/mL.

These data come from patent publication US20250340623A1 (AC IMMUNE, published 2025).
